First the molecules themselves.
B1: CE115HA000 A52aS one-arm antibody (antibody, human IgG1, kappa, L234A L235A, N297A, name in Kabat numbering)
heavy: QVQLVESGGGVVQPGRSLRLSCAASGFTFSNAWMHWVRQAPGKGLEWVAQIKSKSNNYATYYAESVKGRFTISRDDSKNSLYLQMNSLKTEDTAVYYCRYVHYGAYYGVDAWGQGTTVTVSSASTKGPSVFPLAPSSKSTSGGTAALGCLVKDYFPEPVTVSWNSGALTSGVHTFPAVLQSSGLYSLSSVVTVPSSSLGTQTYICNVNHKPSNTKVDKKVEPKSCDKTHTCPPCPAPEAAGGPSVFLFPPKPKDTLMISRTPEVTCVVVDVSHEDPEVKFNWYVDGVEVHNAKTKPREEQYASTYRVVSVLTVLHQDWLNGKEYKCKVSNKALPAPIEKTISKAKGQPREPQVYTLPPSRCELTKNQVSLSCAVKGFYPSDIAVEWESNGQPENNYKTTPPVLDSDGSFFLVSKLTVDKSRWQQGNVFSCSVMHEALHNHYTQKSLSLSPDYKDDDDK
chain: EPKSSDKTHTCPPCPAPELLGGPSVFLFPPKPKDTLMISRTPEVTCVVVDVSHEDPEVKFNWYVDGVEVHNAKTKPREEQYNSTYRVVSVLTVLHQDWLNGKEYKCKVSNKALPAPIEKTISKAKGQPREPQVCTLPPSRDELTKNQVSLWCLVKGFYPSDIAVEWESNGQPENNYKTTPPVLDSDGSFFLYSKLTVDKSRWQQGNVFSCSVMHEALHNRYTQKSLSLSP
light: DIVMTQSPLSLPVTPGEPASISCRSSQSLVHSNRNTYLHWYQQKPGQAPRLLIYKVSNRFSGVPDRFSGSGSGTDFTLKISRVEAEDVGVYYCGQGTQVPYTFGQGTKLEIKRTVAAPSVFIFPPSDEQLKSGTASVVCLLNNFYPREAKVQWKVDNALQSGNSQESVTEQDSKDSTYSLSSTLTLSKADYEKHKVYACEVTHQGLSSPVTKSFNRGEC
B2: CE115HA000 A56K one-arm antibody (antibody, human IgG1, kappa, L234A L235A, N297A, name in Kabat numbering)
heavy: QVQLVESGGGVVQPGRSLRLSCAASGFTFSNAWMHWVRQAPGKGLEWVAQIKAKSNNYKTYYAESVKGRFTISRDDSKNSLYLQMNSLKTEDTAVYYCRYVHYGAYYGVDAWGQGTTVTVSSASTKGPSVFPLAPSSKSTSGGTAALGCLVKDYFPEPVTVSWNSGALTSGVHTFPAVLQSSGLYSLSSVVTVPSSSLGTQTYICNVNHKPSNTKVDKKVEPKSCDKTHTCPPCPAPEAAGGPSVFLFPPKPKDTLMISRTPEVTCVVVDVSHEDPEVKFNWYVDGVEVHNAKTKPREEQYASTYRVVSVLTVLHQDWLNGKEYKCKVSNKALPAPIEKTISKAKGQPREPQVYTLPPSRCELTKNQVSLSCAVKGFYPSDIAVEWESNGQPENNYKTTPPVLDSDGSFFLVSKLTVDKSRWQQGNVFSCSVMHEALHNHYTQKSLSLSPDYKDDDDK
chain: EPKSSDKTHTCPPCPAPELLGGPSVFLFPPKPKDTLMISRTPEVTCVVVDVSHEDPEVKFNWYVDGVEVHNAKTKPREEQYNSTYRVVSVLTVLHQDWLNGKEYKCKVSNKALPAPIEKTISKAKGQPREPQVCTLPPSRDELTKNQVSLWCLVKGFYPSDIAVEWESNGQPENNYKTTPPVLDSDGSFFLYSKLTVDKSRWQQGNVFSCSVMHEALHNRYTQKSLSLSP
light: DIVMTQSPLSLPVTPGEPASISCRSSQSLVHSNRNTYLHWYQQKPGQAPRLLIYKVSNRFSGVPDRFSGSGSGTDFTLKISRVEAEDVGVYYCGQGTQVPYTFGQGTKLEIKRTVAAPSVFIFPPSDEQLKSGTASVVCLLNNFYPREAKVQWKVDNALQSGNSQESVTEQDSKDSTYSLSSTLTLSKADYEKHKVYACEVTHQGLSSPVTKSFNRGEC
B3: CE115HA000 A56G one-arm antibody (antibody, human IgG1, kappa, L234A L235A, N297A, name in Kabat numbering)
heavy: QVQLVESGGGVVQPGRSLRLSCAASGFTFSNAWMHWVRQAPGKGLEWVAQIKAKSNNYGTYYAESVKGRFTISRDDSKNSLYLQMNSLKTEDTAVYYCRYVHYGAYYGVDAWGQGTTVTVSSASTKGPSVFPLAPSSKSTSGGTAALGCLVKDYFPEPVTVSWNSGALTSGVHTFPAVLQSSGLYSLSSVVTVPSSSLGTQTYICNVNHKPSNTKVDKKVEPKSCDKTHTCPPCPAPEAAGGPSVFLFPPKPKDTLMISRTPEVTCVVVDVSHEDPEVKFNWYVDGVEVHNAKTKPREEQYASTYRVVSVLTVLHQDWLNGKEYKCKVSNKALPAPIEKTISKAKGQPREPQVYTLPPSRCELTKNQVSLSCAVKGFYPSDIAVEWESNGQPENNYKTTPPVLDSDGSFFLVSKLTVDKSRWQQGNVFSCSVMHEALHNHYTQKSLSLSPDYKDDDDK
chain: EPKSSDKTHTCPPCPAPELLGGPSVFLFPPKPKDTLMISRTPEVTCVVVDVSHEDPEVKFNWYVDGVEVHNAKTKPREEQYNSTYRVVSVLTVLHQDWLNGKEYKCKVSNKALPAPIEKTISKAKGQPREPQVCTLPPSRDELTKNQVSLWCLVKGFYPSDIAVEWESNGQPENNYKTTPPVLDSDGSFFLYSKLTVDKSRWQQGNVFSCSVMHEALHNRYTQKSLSLSP
light: DIVMTQSPLSLPVTPGEPASISCRSSQSLVHSNRNTYLHWYQQKPGQAPRLLIYKVSNRFSGVPDRFSGSGSGTDFTLKISRVEAEDVGVYYCGQGTQVPYTFGQGTKLEIKRTVAAPSVFIFPPSDEQLKSGTASVVCLLNNFYPREAKVQWKVDNALQSGNSQESVTEQDSKDSTYSLSSTLTLSKADYEKHKVYACEVTHQGLSSPVTKSFNRGEC
B4: CE115HA000 A52aV one-arm antibody (antibody, human IgG1, kappa, L234A L235A, N297A, name in Kabat numbering)
heavy: QVQLVESGGGVVQPGRSLRLSCAASGFTFSNAWMHWVRQAPGKGLEWVAQIKVKSNNYATYYAESVKGRFTISRDDSKNSLYLQMNSLKTEDTAVYYCRYVHYGAYYGVDAWGQGTTVTVSSASTKGPSVFPLAPSSKSTSGGTAALGCLVKDYFPEPVTVSWNSGALTSGVHTFPAVLQSSGLYSLSSVVTVPSSSLGTQTYICNVNHKPSNTKVDKKVEPKSCDKTHTCPPCPAPEAAGGPSVFLFPPKPKDTLMISRTPEVTCVVVDVSHEDPEVKFNWYVDGVEVHNAKTKPREEQYASTYRVVSVLTVLHQDWLNGKEYKCKVSNKALPAPIEKTISKAKGQPREPQVYTLPPSRCELTKNQVSLSCAVKGFYPSDIAVEWESNGQPENNYKTTPPVLDSDGSFFLVSKLTVDKSRWQQGNVFSCSVMHEALHNHYTQKSLSLSPDYKDDDDK
chain: EPKSSDKTHTCPPCPAPELLGGPSVFLFPPKPKDTLMISRTPEVTCVVVDVSHEDPEVKFNWYVDGVEVHNAKTKPREEQYNSTYRVVSVLTVLHQDWLNGKEYKCKVSNKALPAPIEKTISKAKGQPREPQVCTLPPSRDELTKNQVSLWCLVKGFYPSDIAVEWESNGQPENNYKTTPPVLDSDGSFFLYSKLTVDKSRWQQGNVFSCSVMHEALHNRYTQKSLSLSP
light: DIVMTQSPLSLPVTPGEPASISCRSSQSLVHSNRNTYLHWYQQKPGQAPRLLIYKVSNRFSGVPDRFSGSGSGTDFTLKISRVEAEDVGVYYCGQGTQVPYTFGQGTKLEIKRTVAAPSVFIFPPSDEQLKSGTASVVCLLNNFYPREAKVQWKVDNALQSGNSQESVTEQDSKDSTYSLSSTLTLSKADYEKHKVYACEVTHQGLSSPVTKSFNRGEC
B5: CE115HA000 A56D one-arm antibody (antibody, human IgG1, kappa, L234A L235A, N297A, name in Kabat numbering)
heavy: QVQLVESGGGVVQPGRSLRLSCAASGFTFSNAWMHWVRQAPGKGLEWVAQIKAKSNNYDTYYAESVKGRFTISRDDSKNSLYLQMNSLKTEDTAVYYCRYVHYGAYYGVDAWGQGTTVTVSSASTKGPSVFPLAPSSKSTSGGTAALGCLVKDYFPEPVTVSWNSGALTSGVHTFPAVLQSSGLYSLSSVVTVPSSSLGTQTYICNVNHKPSNTKVDKKVEPKSCDKTHTCPPCPAPEAAGGPSVFLFPPKPKDTLMISRTPEVTCVVVDVSHEDPEVKFNWYVDGVEVHNAKTKPREEQYASTYRVVSVLTVLHQDWLNGKEYKCKVSNKALPAPIEKTISKAKGQPREPQVYTLPPSRCELTKNQVSLSCAVKGFYPSDIAVEWESNGQPENNYKTTPPVLDSDGSFFLVSKLTVDKSRWQQGNVFSCSVMHEALHNHYTQKSLSLSPDYKDDDDK
chain: EPKSSDKTHTCPPCPAPELLGGPSVFLFPPKPKDTLMISRTPEVTCVVVDVSHEDPEVKFNWYVDGVEVHNAKTKPREEQYNSTYRVVSVLTVLHQDWLNGKEYKCKVSNKALPAPIEKTISKAKGQPREPQVCTLPPSRDELTKNQVSLWCLVKGFYPSDIAVEWESNGQPENNYKTTPPVLDSDGSFFLYSKLTVDKSRWQQGNVFSCSVMHEALHNRYTQKSLSLSP
light: DIVMTQSPLSLPVTPGEPASISCRSSQSLVHSNRNTYLHWYQQKPGQAPRLLIYKVSNRFSGVPDRFSGSGSGTDFTLKISRVEAEDVGVYYCGQGTQVPYTFGQGTKLEIKRTVAAPSVFIFPPSDEQLKSGTASVVCLLNNFYPREAKVQWKVDNALQSGNSQESVTEQDSKDSTYSLSSTLTLSKADYEKHKVYACEVTHQGLSSPVTKSFNRGEC
B6: CE115HA000 A52aY one-arm antibody (antibody, human IgG1, kappa, L234A L235A, N297A, name in Kabat numbering)
heavy: QVQLVESGGGVVQPGRSLRLSCAASGFTFSNAWMHWVRQAPGKGLEWVAQIKYKSNNYATYYAESVKGRFTISRDDSKNSLYLQMNSLKTEDTAVYYCRYVHYGAYYGVDAWGQGTTVTVSSASTKGPSVFPLAPSSKSTSGGTAALGCLVKDYFPEPVTVSWNSGALTSGVHTFPAVLQSSGLYSLSSVVTVPSSSLGTQTYICNVNHKPSNTKVDKKVEPKSCDKTHTCPPCPAPEAAGGPSVFLFPPKPKDTLMISRTPEVTCVVVDVSHEDPEVKFNWYVDGVEVHNAKTKPREEQYASTYRVVSVLTVLHQDWLNGKEYKCKVSNKALPAPIEKTISKAKGQPREPQVYTLPPSRCELTKNQVSLSCAVKGFYPSDIAVEWESNGQPENNYKTTPPVLDSDGSFFLVSKLTVDKSRWQQGNVFSCSVMHEALHNHYTQKSLSLSPDYKDDDDK
chain: EPKSSDKTHTCPPCPAPELLGGPSVFLFPPKPKDTLMISRTPEVTCVVVDVSHEDPEVKFNWYVDGVEVHNAKTKPREEQYNSTYRVVSVLTVLHQDWLNGKEYKCKVSNKALPAPIEKTISKAKGQPREPQVCTLPPSRDELTKNQVSLWCLVKGFYPSDIAVEWESNGQPENNYKTTPPVLDSDGSFFLYSKLTVDKSRWQQGNVFSCSVMHEALHNRYTQKSLSLSP
light: DIVMTQSPLSLPVTPGEPASISCRSSQSLVHSNRNTYLHWYQQKPGQAPRLLIYKVSNRFSGVPDRFSGSGSGTDFTLKISRVEAEDVGVYYCGQGTQVPYTFGQGTKLEIKRTVAAPSVFIFPPSDEQLKSGTASVVCLLNNFYPREAKVQWKVDNALQSGNSQESVTEQDSKDSTYSLSSTLTLSKADYEKHKVYACEVTHQGLSSPVTKSFNRGEC

In the test the target is T1, CD3 epsilon homodimer protein (UniProt P07766 23-126).
T1 construct: immobilized on Sensor chip CM4 by amine coupling; also called CD3 (CD3 epsilon)
T1 sequence (P07766 23-126): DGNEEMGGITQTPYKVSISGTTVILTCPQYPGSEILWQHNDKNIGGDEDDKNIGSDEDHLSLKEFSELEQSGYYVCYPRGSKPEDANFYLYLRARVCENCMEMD
Briefly: SPR (Biacore T200), CD3 epsilon homodimer on CM4 chip, one-arm antibody as analyte, 25 C.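 Note: homodimer attached to the sensor surface via amine coupling, HBS-EP+ used as running buffer during binding runs.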
Description: An appropriate amount of CD3 epsilon homodimer protein was immobilized onto Sensor chip CM4 (GE Healthcare Japan Corp.) by the amine coupling method. Then, the antibody having an appropriate concentration was injected thereto as an analyte and allowed to interact with the CD3 epsilon homodimer protein on the sensor chip. Then, the sensor chip was regenerated by the injection of 10 mmol/L glycine-HCl (pH 1.5). The assay was conducted at 25 degrees C., and HBS-EP+(GE Healthcare Japan Corp.) was used as a running buffer. […] Each parameter was calculated using Biacore T200 Evaluation Software (GE Healthcare Japan Corp.).
Regarding B1, the “ratio of amounts bound (altered form / CE115HA000)” value was 1.05.

On to B2, for which the “ratio of amounts bound (altered form / CE115HA000)” value came out at 1.35.

Consider B3, for which the “ratio of amounts bound (altered form / CE115HA000)” value came to 0.61.

Consider B4, for which the “ratio of amounts bound (altered form / CE115HA000)” value came out at 0.52.

As to B5, the “ratio of amounts bound (altered form / CE115HA000)” value came out at 0.51.

Consider B6, for which the “ratio of amounts bound (altered form / CE115HA000)” value was 0.31.

Values taken from patent US20210388087A1 (Chugai, published 2021).
